Laboratory results taken from paper PMC4187731, “WWP2-WWP1 Ubiquitin Ligase Complex Coordinated by PPM1G Maintains the Balance between Cellular p73 and ΔNp73 Levels” (Molecular and Cellular Biology, 2014).

Molecular target: T1, MBP-WWP2 (UniProt O00308 1-870)
T1 construct: WWP2; also called bacterially purified WWP2; source: bacterially expressed; bacterially purified (methods, results) or bacterial cell lysate
Experiment: pull-down; GST, GST-p73 or GST-ΔNp73 on glutathione-Sepharose beads incubated with MBP-WWP2 for 1 h at 4°C; immunoblot with MBP antibody
Settings: both partners purified

T1 sequence (O00308 whole entry): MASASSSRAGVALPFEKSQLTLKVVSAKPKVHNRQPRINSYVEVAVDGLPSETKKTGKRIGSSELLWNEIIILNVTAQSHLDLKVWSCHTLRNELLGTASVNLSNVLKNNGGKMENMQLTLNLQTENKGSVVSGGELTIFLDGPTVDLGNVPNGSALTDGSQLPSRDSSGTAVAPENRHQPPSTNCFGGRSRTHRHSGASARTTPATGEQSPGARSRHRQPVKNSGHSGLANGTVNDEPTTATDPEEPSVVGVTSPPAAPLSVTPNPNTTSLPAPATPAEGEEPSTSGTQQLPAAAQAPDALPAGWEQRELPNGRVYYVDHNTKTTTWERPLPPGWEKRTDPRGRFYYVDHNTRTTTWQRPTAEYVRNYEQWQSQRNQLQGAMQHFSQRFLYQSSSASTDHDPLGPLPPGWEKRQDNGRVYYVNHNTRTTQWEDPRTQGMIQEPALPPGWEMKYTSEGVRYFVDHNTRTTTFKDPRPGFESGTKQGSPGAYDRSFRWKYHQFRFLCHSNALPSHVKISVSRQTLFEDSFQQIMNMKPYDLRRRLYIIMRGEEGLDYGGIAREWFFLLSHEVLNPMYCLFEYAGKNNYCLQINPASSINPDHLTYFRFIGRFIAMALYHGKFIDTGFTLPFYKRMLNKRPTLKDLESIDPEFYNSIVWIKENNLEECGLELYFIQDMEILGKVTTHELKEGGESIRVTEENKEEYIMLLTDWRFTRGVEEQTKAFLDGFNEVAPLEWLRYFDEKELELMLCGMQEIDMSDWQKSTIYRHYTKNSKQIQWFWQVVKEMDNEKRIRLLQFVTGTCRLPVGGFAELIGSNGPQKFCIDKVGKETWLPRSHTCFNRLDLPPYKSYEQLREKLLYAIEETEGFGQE

Binder	binding result
GST-p73 (natural protein, UniProt O15350 1-636, looked up, also called glutathione S-transferase (GST)–p73) MAQSTATSPDGGTTFEHLWSSLEPDSTYFDLPQSSRGNNEVVGGTDSSMDVFHLEGMTTSVMAQFNLLSSTMDQMSSRAASASPYTPEHAASVPTHSPYAQPSSTFDTMSPAPVIPSNTDYPGPHHFEVTFQQSSTAKSATWTYSPLLKKLYCQIAKTCPIQIKVSTPPPPGTAIRAMPVYKKAEHVTDVVKRCPNHELGRDFNEGQSAPASHLIRVEGNNLSQYVDDPVTGRQSVVVPYEPPQVGTEFTTILYNFMCNSSCVGGMNRRPILIIITLEMRDGQVLGRRSFEGRICACPGRDRKADEDHYREQQALNESSAKNGAASKRAFKQSPPAVPALGAGVKKRRHGDEDTYYLQVRGRENFEILMKLKESLELMELVPQPLVDSYRQQQQLLQRPSHLQPPSYGPVLSPMNKVHGGMNKLPSVNQLVGQPPPHSSAATPNLGPVGPGMLNNHGHAVPANGEMSSSHSAQSMVSGSHCTPPPPYHADPSLVSFLTGLGCPNCIEYFTSQGLQSIYHLQNLTIEDLGALKIPEQYRMTIWRGLQDLKQGHDYSTAQQLLRSSNAATISIGGSGELQRQRVMEAVHFRVRHTITIPNRGGPGGGPDEWADFGFDLPDCKARKQPIKEEFTEAEIH	binds
GST-ΔNp73 (natural protein, UniProt O15350-8 1-587, looked up) MLYVGDPARHLATAQFNLLSSTMDQMSSRAASASPYTPEHAASVPTHSPYAQPSSTFDTMSPAPVIPSNTDYPGPHHFEVTFQQSSTAKSATWTYSPLLKKLYCQIAKTCPIQIKVSTPPPPGTAIRAMPVYKKAEHVTDVVKRCPNHELGRDFNEGQSAPASHLIRVEGNNLSQYVDDPVTGRQSVVVPYEPPQVGTEFTTILYNFMCNSSCVGGMNRRPILIIITLEMRDGQVLGRRSFEGRICACPGRDRKADEDHYREQQALNESSAKNGAASKRAFKQSPPAVPALGAGVKKRRHGDEDTYYLQVRGRENFEILMKLKESLELMELVPQPLVDSYRQQQQLLQRPSHLQPPSYGPVLSPMNKVHGGMNKLPSVNQLVGQPPPHSSAATPNLGPVGPGMLNNHGHAVPANGEMSSSHSAQSMVSGSHCTPPPPYHADPSLVSFLTGLGCPNCIEYFTSQGLQSIYHLQNLTIEDLGALKIPEQYRMTIWRGLQDLKQGHDYSTAQQLLRSSNAATISIGGSGELQRQRVMEAVHFRVRHTITIPNRGGPGGGPDEWADFGFDLPDCKARKQPIKEEFTEAEIH	binds
